US8840891 (RSR, dated 2014)
Like-named read-outs stand apart in the source and are kept apart here.

Experiments:
Test in all cases: cell-based or functional assay
[1] = molecular target: TSHR with Tyr82 mutated to Alanine (human) (UniProt P16473)
[2] = molecular target: wild type human TSHR (human) (UniProt P16473)
[3] = molecular target: TSHR with Lys183 mutated to Alanine (human) (UniProt P16473)
[4] = molecular target: wild type human TSHR (human) (UniProt P16473); remark: listed apart in the source

5C9 IgG (antibody), sequence (VH): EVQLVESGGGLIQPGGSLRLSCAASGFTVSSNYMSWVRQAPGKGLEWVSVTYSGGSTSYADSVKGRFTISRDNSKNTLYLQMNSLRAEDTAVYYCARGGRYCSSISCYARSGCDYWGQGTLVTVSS
5C9 IgG (antibody), sequence (VL): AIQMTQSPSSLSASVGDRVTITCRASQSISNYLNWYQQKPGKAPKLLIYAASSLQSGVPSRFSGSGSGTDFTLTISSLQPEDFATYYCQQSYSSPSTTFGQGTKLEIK

5C9 IgG (antibody)
Mutated/wild type (%); 5C9 0.01 µg/mL + TSH [1]: 113% | Mutated/wild type (%); 5C9 0.1 µg/mL + TSH [1]: 203% | Mutated/wild type (%); 5C9 1.0 µg/mL + TSH [1]: 185% | Mutated/wild type (%); 5C9 10 µg/mL + TSH [1]: 200% | Mutated/wild type (%); 5C9 100 µg/mL + TSH [1]: 105% | Mutated/wild type (%); 5C9 100 µg/mL only [1]: 494% | cyclic AMP; 5C9 0.01 µg/mL + TSH (fmol/cell well) [1]: 15700 | cyclic AMP; 5C9 0.1 µg/mL + TSH (fmol/cell well) [1]: 12700 | cyclic AMP; 5C9 1.0 µg/mL + TSH (fmol/cell well) [1]: 2960 | cyclic AMP; 5C9 10 µg/mL + TSH (fmol/cell well) [1]: 1650 | cyclic AMP; 5C9 100 µg/mL + TSH (fmol/cell well) [1]: 1030 | cyclic AMP; 5C9 100 µg/mL only (fmol/cell well) [1]: 1430 | cyclic AMP; 5C9 0.01 µg/mL + TSH (fmol/cell well) [2]: 13900 | cyclic AMP; 5C9 0.1 µg/mL + TSH (fmol/cell well) [2]: 6250 | cyclic AMP; 5C9 1.0 µg/mL + TSH (fmol/cell well) [2]: 1600 | cyclic AMP; 5C9 10 µg/mL + TSH (fmol/cell well) [2]: 822 | cyclic AMP; 5C9 100 µg/mL + TSH (fmol/cell well) [2]: 978 | cyclic AMP; 5C9 100 µg/mL only (fmol/cell well) [2]: 289 | Mutated/wild type (%); 5C9 0.01 µg/mL + TSH [3]: 130% | Mutated/wild type (%); 5C9 0.1 µg/mL + TSH [3]: 211% | Mutated/wild type (%); 5C9 1.0 µg/mL + TSH [3]: 418% | Mutated/wild type (%); 5C9 10 µg/mL + TSH [3]: 618% | Mutated/wild type (%); 5C9 100 µg/mL + TSH [3]: 786% | Mutated/wild type (%); 5C9 100 µg/mL only [3]: 195% | cyclic AMP; 5C9 0.01 µg/mL + TSH (fmol/cell well) [3]: 23300 | cyclic AMP; 5C9 0.1 µg/mL + TSH (fmol/cell well) [3]: 24300 | cyclic AMP; 5C9 1.0 µg/mL + TSH (fmol/cell well) [3]: 14600 | cyclic AMP; 5C9 10 µg/mL + TSH (fmol/cell well) [3]: 7570 | cyclic AMP; 5C9 100 µg/mL + TSH (fmol/cell well) [3]: 11400 | cyclic AMP; 5C9 100 µg/mL only (fmol/cell well) [3]: 747 | cyclic AMP; 5C9 0.01 µg/mL + TSH (fmol/cell well) [4]: 18000 | cyclic AMP; 5C9 0.1 µg/mL + TSH (fmol/cell well) [4]: 11500 | cyclic AMP; 5C9 1.0 µg/mL + TSH (fmol/cell well) [4]: 3490 | cyclic AMP; 5C9 10 µg/mL + TSH (fmol/cell well) [4]: 1230 | cyclic AMP; 5C9 100 µg/mL + TSH (fmol/cell well) [4]: 1460 | cyclic AMP; 5C9 100 µg/mL only (fmol/cell well) [4]: 384
